# Laboratory results: the Immune Epitope Database (IEDB)
# Biological target: HLA-A*02:01
# Assay: IEDB peptide-MHC binding, purified MHC/competitive/radioactivity; ≥ and ≤ were set here for values at or beyond the usual limits of such assays
# Conditions: source organism: Homo sapiens
row,Sequence,IC50 [nM]
1,AVMDPFIYA,758
2,FLSLGLVSL,206
3,TILLGIFFL,455

# Other lines, results leading:
row,IC50 [nM],Sequence
1,893,ALIICNAII
2,535,GLFLSLGLV
3,532,GLVSLVENA
4,676,LLCLVVFFL
5,633,SLNSTPTAI
6,429,SLVENALVV
7,238,VLETAVGLL

# Biological target: HLA-A*02:01
# Assay: IEDB peptide-MHC binding, purified MHC/competitive/radioactivity; filed as Kd, often an IC50 or EC50 that approximates it; ≥ and ≤ were set here for values at or beyond the usual limits of such assays
# Conditions: source organism: Homo sapiens
row,Sequence,Kd [nM]
1,FLAMLVLMA,2080
2,GLAANQTGA,2380
3,GLKGAVTLT,≥ 50000
4,LVLMAVLYV,1210
5,MLARACQHA,1640
6,NGMLIMCNA,16700
7,QLGLAANQT,≥ 50000
8,TILIGVFVV,4540
9,TLPRARRRV,≥ 25000
10,YLILIMCNS,6250
11,YLVLINCNS,2170

# Second part, the sequence after the results:
row,Kd [nM],Sequence
1,11100,ALVARAAVL
2,≥ 50000,DLLVSGSNV
3,≥ 50000,ELRRTLKEV
4,5560,ILLGIFFLC
5,4760,ILLLEAGAL
6,1410,LLVSGSNVL
7,≥ 10000,SLCFLGAIA
8,1190,SVIDPLIYA
9,4540,TILLGVFIF
